What is called stoichiometry N is a count of units in the complex or per binding partner.

The series concerns the molecule itself. The series is described as follows: native gel or EMSA.

B1: 14-3-3ζ pseudo-WT (C25A, C189A) (natural protein)
chain: MDKNELVQKAKLAEQAERYDDMAAAMKSVTEQGAELSNEERNLLSVAYKNVVGARRSSWRVVSSIEQKTEGAEKKQQMAREYREKIETELRDICNDVLSLLEKFLIPNASQAESKVFYLKMKGDYYRYLAEVAAGDDKKGIVDQSQQAYQEAFEISKKEMQPTHPIRLGLALNFSVFYYEILNSPEKAASLAKTAFDEAIAELDTLSEESYKDSTLIMQLLRDNLTLWTSDTQGDEAEAGEGGEN
On to B1, for which the “stoichiometry N” value amounted to 2.

For the origin of these results see article PMC5881884 (Biochimica et biophysica acta, 2017).
